Laboratory results from paper doi:10.1101/2021.02.22.432310.

Biological target: mGFP-UvrD (genomically integrated) (E. coli) (UniProt P03018)
Assay: single-molecule fluorescence microscopy

stoichiometry N: 4
Substance: mGFP-UvrD (genomically integrated) (from UniProt P03018 1-720) (enzyme)
